Results reported in paper PMC10350833.

Experiments:
GFP-p62^S349A (human) = GFP-p62^S349A (human) (UniProt Q13501)
GFP-p62^S349E (human) = GFP-p62^S349E (human) (UniProt Q13501)

- FLIP: signal intensity of mCherry-KEAP1 in GFP-p62 bodies of the non-bleached area, percent of the baseline value at 30 min after photobleaching (efflux of KEAP1) (GFP-p62^S349A (human)): 58.2%
- FLIP: signal intensity of mCherry-KEAP1 in GFP-p62 bodies of the non-bleached area, percent of the baseline value at 30 min after photobleaching (efflux of KEAP1) (GFP-p62^S349E (human)): 72%
Substance: mCherry-tagged KEAP1 (from UniProt Q14145 1-624) (natural protein)
